# Experimental data reported in paper PMC5622162, “PLPP/CIN Regulates Seizure Activity by the Differential Modulation of Calsenilin Binding to GluN1 and Kv4.2 in Mice” (Frontiers in Molecular Neuroscience, 2017).
# T1: calsenilin (CSEN), endogenous in mouse hippocampus or brain (mouse (endogenous in hippocampus), UniProt Q9QXT8 1-256)
# T1 construct: calsenilin (CSEN, DREAM, KChIP3), endogenous mouse protein; a mixture of phosphorylated and dephosphorylated forms in the lysate; The state of phosphorylation differs with genotype and treatment; also called pCSEN; DREAM; source: endogenous, mouse hippocampus lysate (RIPA); crude extracts of PLPP/CIN-/- mouse brain
# T1 sequence (looked up): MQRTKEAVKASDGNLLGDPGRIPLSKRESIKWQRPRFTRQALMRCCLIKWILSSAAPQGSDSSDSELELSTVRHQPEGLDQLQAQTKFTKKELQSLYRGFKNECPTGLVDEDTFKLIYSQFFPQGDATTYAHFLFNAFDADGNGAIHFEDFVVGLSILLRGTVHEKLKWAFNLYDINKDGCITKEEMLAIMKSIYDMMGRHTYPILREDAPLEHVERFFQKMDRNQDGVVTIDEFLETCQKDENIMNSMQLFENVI
# B1: recombinant human pyridoxal-5'-phosphate phosphatase/chronophin (PLPP/CIN) (enzyme, UniProt Q96GD0 1-296, looked up)
# chain: MARCERLRGAALRDVLGRAQGVLFDCDGVLWNGERAVPGAPELLERLARAGKAALFVSNNSRRARPELALRFARLGFGGLRAEQLFSSALCAARLLRQRLPGPPDAPGAVFVLGGEGLRAELRAAGLRLAGDPSAGDGAAPRVRAVLVGYDEHFSFAKLREACAHLRDPECLLVATDRDPWHPLSDGSRTPGTGSLAAAVETASGRQALVVGKPSPYMFECITENFSIDPARTLMVGDRLETDILFGHRCGMTTVLTLTGVSRLEEAQAYLAAGQHDLVPHYYVESIADLTEGLED
# notes: pyridoxal-5'-phosphate phosphatase/chronophin (PLPP/CIN), human, recombinant protein from Abcam; the words 'full-length recombinant human' stand before CSEN and are read as holding for PLPP/CIN too; source: bought: Abcam (recombinant)
# Biological target: T1, calsenilin (CSEN), endogenous in mouse …
# Assay: co-IP; in vitro: recombinant PLPP/CIN (10 ng/ul) added to crude extracts of PLPP/CIN^-/- mouse brain at 30°C for 1 h; co-precipitation with endogenous CSEN and western blot
# Conditions: one partner purified
binder,measurement,value
B1,"binding of CSEN with CK1 left in the presence of PLPP/CIN, fold of vehicle",0.68 fold of vehicle level
